{"source": "paper PMC13543948", "about": "“SNX-BAR proteins 5 and 6 are required for NCOA7-AS antiviral activity against influenza A virus” (The Journal of Biological Chemistry, 2026)", "binders": {"B1": {"name": "MBP-tagged PX domain of SNX5 (MBP-PX-SNX5) (domain or fragment, human, UniProt Q9Y5X3 25-172, looked up)", "chain": "LNVDPSLQIDIPDALSERDKVKFTVHTKTTLPTFQSPEFSVTRQHEDFVWLHDTLIETTDYAGLIIPPAPTKPDFDGPREKMQKLGEGEGSMTKEEFAKMKQELEAEYLAVFKKTVSSHEVFLQRLSSHPVLSKDRNFHVFLEYDQDL", "notes": "Phox homology (PX) domain of human sorting nexin 5; Cloned in pMAL-p4X; also called PX-SNX5-WT; source: E. coli BL21 (DE3), purified (amylose resin, SEC)"}, "B2": {"name": "GST-tagged NCOA7-AS N-terminal domain (NCOA7-AS-NTD-GST) (domain or fragment, human, UniProt Q8NI08-5 1-53, looked up)", "chain": "MRGQRLPLDIQIFYCARPDEEPFVKIITVEEAKRRKSTCSYYEDEDEEVLPVL", "notes": "numbers count on: NCOA7-AS; source: E. coli BL21 (DE3), purified (Ni-NTA, SEC); not shown: GST, C-terminal, kept"}, "B3": {"name": "FITC conjugated NCOA7-AS peptide (NCOA7-AS-NTD-FITC) (peptide)", "peptide": "RLPLDIQIFYCARPDEEPFVKIITVEEAKRR", "modifications": "also: FITC conjugated, position not given here", "notes": "numbers count on: NCOA7-AS; Printed as NH2-...-COOH; Limits worked out from Tyr14, Gln11, Glu21 and Val24 as numbered in the structure; also called fluorescently labeled NCOA7-AS-NTD"}}, "conditions_in_all_cases": "both partners purified", "key": {"[1]": {"biological_target": "T1, GST-tagged NCOA7-AS (NCOA7-AS-WT-GST) (human, UniProt Q8NI08-5 1-219)", "T1 construct": "numbers count on: NCOA7-AS; Modified pET-30: MCS, TEV cleavage site, GST, His6; no cleavage is described for the GST-tagged proteins; also called GST-tagged-NCOA7-AS-WT; source: E. coli BL21 (DE3), purified (Ni-NTA, SEC); not shown: GST, C-terminal, kept", "T1 sequence (looked up)": "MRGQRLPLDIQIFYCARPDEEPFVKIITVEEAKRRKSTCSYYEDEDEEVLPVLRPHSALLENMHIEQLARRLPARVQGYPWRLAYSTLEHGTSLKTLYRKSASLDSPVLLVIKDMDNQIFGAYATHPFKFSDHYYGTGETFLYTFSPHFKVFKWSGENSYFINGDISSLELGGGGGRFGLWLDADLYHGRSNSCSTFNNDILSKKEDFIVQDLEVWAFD", "assay": "pull-down; GST-tagged proteins (14-35 μg) on glutathione agarose beads, 85 μg MBP-tagged protein, 2 h at 4 °C; 50 mM Tris-HCl pH 8, 600 mM NaCl, 5 mM β-mercaptoethanol, 10% glycerol; Western blot (GST, MBP)"}, "GST-tagged NCOA7-AS-Y14F": {"biological_target": "T2, GST-tagged NCOA7-AS-Y14F (human, UniProt Q8NI08-5 1-219, Y14F)", "T2 construct": "source: E. coli BL21 (DE3), purified (Ni-NTA, SEC); not shown: GST, C-terminal, kept", "T2 sequence (looked up)": "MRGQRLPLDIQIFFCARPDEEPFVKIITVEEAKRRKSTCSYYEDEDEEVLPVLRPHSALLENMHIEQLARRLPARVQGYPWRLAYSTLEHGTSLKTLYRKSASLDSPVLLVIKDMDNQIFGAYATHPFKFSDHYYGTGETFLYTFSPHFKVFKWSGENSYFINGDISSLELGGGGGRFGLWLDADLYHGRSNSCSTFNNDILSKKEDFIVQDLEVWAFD", "assay": "pull-down; GST-tagged proteins (14-35 μg) on glutathione agarose beads, 85 μg MBP-tagged protein, 2 h at 4 °C; 50 mM Tris-HCl pH 8, 600 mM NaCl, 5 mM β-mercaptoethanol, 10% glycerol; Western blot (GST, MBP)"}, "[2]": {"biological_target": "B1", "assay": "pull-down; GST-tagged proteins (14-35 μg) on glutathione agarose beads, 85 μg MBP-tagged protein, 2 h at 4 °C; 50 mM Tris-HCl pH 8, 600 mM NaCl, 5 mM β-mercaptoethanol, 10% glycerol; Western blot (GST, MBP)"}, "[3]": {"biological_target": "T3, MBP-tagged PX domain of SNX5 with F136A (MBP-PX-SNX5-F136A) (human, UniProt Q9Y5X3 25-172, F136A)", "T3 construct": "Phox homology (PX) domain of human sorting nexin 5; pMAL-PX-SNX5-F136A by site-directed mutagenesis; also called F136A mutant; source: E. coli BL21 (DE3), purified (amylose resin, SEC)", "T3 sequence (looked up)": "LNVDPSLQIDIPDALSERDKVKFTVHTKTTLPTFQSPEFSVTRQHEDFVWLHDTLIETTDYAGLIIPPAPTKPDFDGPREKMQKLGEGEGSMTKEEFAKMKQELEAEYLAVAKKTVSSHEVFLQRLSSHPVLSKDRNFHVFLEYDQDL", "assay": "microfluidic diffusional sizing; 57 nM FITC peptide tracked, MBP-PX-SNX5 proteins titrated 0.38-250 μM in PBS-10% glycerol; Fluidity One-W; hydrodynamic radius; one-site specific binding fit; apparent Kd"}, "[4]": {"biological_target": "B1", "assay": "microfluidic diffusional sizing; 57 nM FITC peptide tracked, MBP-PX-SNX5 proteins titrated 0.38-250 μM in PBS-10% glycerol; Fluidity One-W; hydrodynamic radius; one-site specific binding fit; apparent Kd"}}, "note": "Where no end group is shown, it is not given here.", "data": [{"binder": "B1", "values": [{"measurement": "binding result", "setting": "[1]", "value": "binds"}, {"measurement": "binding result", "setting": "GST-tagged NCOA7-AS-Y14F", "value": "binds"}]}, {"binder": "B2", "values": [{"measurement": "binding result", "setting": "[2]", "value": "binds"}]}, {"binder": "B3", "values": [{"measurement": "Kd", "setting": "[3]", "value": 13.4, "unit": "µM"}, {"measurement": "Kd", "setting": "[4]", "value": 1.4, "unit": "µM"}]}]}
